Patent US20150266962A1

Columns and labels:
[1] = target: human IL-13Rα2 on the surface of human tumour cell lines (human) (UniProt Q14627); assay: cell-based or functional assay
[2] = target: human IL-13Rα2 on the surface of human tumour cell lines (human) (UniProt Q14627); assay: FACS, 10 µg/mL, A498 (renal) cells
[3] = target: human IL-13Rα2 on the surface of human tumour cell lines (human) (UniProt Q14627); assay: FACS, 10 µg/mL, A375 (melanoma) cells
[4] = target: human IL-13Rα2 on the surface of human tumour cell lines (human) (UniProt Q14627); assay: FACS, 10 µg/mL, SW626 (ovarian) cells
[5] = target: human IL-13Rα2 on the surface of human tumour cell lines (human) (UniProt Q14627); assay: FACS, 10 µg/mL, PC3MM2 (prostate) cells
[6] = target: human IL-13Rα2 on the surface of human tumour cell lines (human) (UniProt Q14627); assay: FACS, 10 µg/mL, Hs766T (pancreatic) cells
[7] = target: human IL-13Rα2 on the surface of human tumour cell lines (human) (UniProt Q14627); assay: FACS, 10 µg/mL, U87MG (glioblastoma) cells
[8] = target: human IL-13Rα2 on the surface of human tumour cell lines (human) (UniProt Q14627); assay: FACS, 10 µg/mL, H460 (lung, cisplatin resistant) cells
[9] = target: human IL-13Rα2 on the surface of human tumour cell lines (human) (UniProt Q14627); assay: FACS on A375 cells
[10] = target: human IL-13Rα2 on the surface of human tumour cell lines (human) (UniProt Q14627); assay: cell-based ELISA on A375 cells (given as ED50)
[11] = target: human IL-13Rα2 on the surface of human tumour cell lines (human) (UniProt Q14627); assay: competition ELISA on A375 cells, competitor biotinylated ch07

Sequence of human IL-13Rα2 on the surface of human tumour cell lines (human) (Q14627 27-380): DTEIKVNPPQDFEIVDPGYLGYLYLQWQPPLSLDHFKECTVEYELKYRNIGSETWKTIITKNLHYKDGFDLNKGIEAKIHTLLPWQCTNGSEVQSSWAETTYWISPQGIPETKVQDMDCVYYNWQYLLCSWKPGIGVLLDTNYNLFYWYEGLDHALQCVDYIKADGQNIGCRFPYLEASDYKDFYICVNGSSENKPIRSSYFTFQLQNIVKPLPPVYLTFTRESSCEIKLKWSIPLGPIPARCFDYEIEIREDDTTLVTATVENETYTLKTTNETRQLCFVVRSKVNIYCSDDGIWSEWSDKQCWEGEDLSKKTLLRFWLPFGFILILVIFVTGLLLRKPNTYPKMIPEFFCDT

B1: murine anti-IL-13Rα2 antibody mu08 (antibody, mouse IgG1, V domains shown)
VH: EVQLVESGGDLVRPGGSLQLSCAASGFTFSRNGMSWVRQTPDRRLEWVATVSSGGSYIYYADSVKGRFTISRDNARNTLYLQMSSLKSEDTAMYYCARQGTTALATRFFDVWGAGTTVTVSS
VL: DIVMTQSHKFISTSVGDRVSITCKASQDVGTAVAWYQQIPGQSPKLLIYSASYRSTGIPDRFTGSGSGTDFSFIISSVQAEDLALYYCQHHYSAPWTFGGGTTLDIK
Question: B1 was tested. Which % internalization, 15 min, A375 [1] did it give?
Answer: Its % internalization, 15 min, A375 is 68%.

Question: What about the % internalization, 15 min, H460R [1] of the same binder?
Answer: Its % internalization, 15 min, H460R is 55.9%.

Question: And the % internalization, 15 min, Hs766T [1]?
Answer: The % internalization, 15 min, Hs766T was 64.1%.

Question: What about the % internalization, 15 min, PC3MM2 [1] of the same binder?
Answer: Its % internalization, 15 min, PC3MM2 is 81.9%.

Question: And the % internalization, 4 hours, A375 [1]?
Answer: The % internalization, 4 hours, A375 was 61.8%.

Question: And the % internalization, 4 hours, H460R [1]?
Answer: The % internalization, 4 hours, H460R was 47.4%.

Question: And the % internalization, 4 hours, Hs766T [1]?
Answer: The % internalization, 4 hours, Hs766T was 76.3%.

Question: And the % internalization, 4 hours, PC3MM2 [1]?
Answer: Its % internalization, 4 hours, PC3MM2 is 41.6%.

Question: And the internalized after a 1 hour incubation with A375 cells at 37° C. [1]?
Answer: The internalized after a 1 hour incubation with A375 cells at 37° C. was 31%.

Question: And the Mean Fluorescent Intensity [2]?
Answer: The Mean Fluorescent Intensity was 5000.

Question: And the Mean Fluorescent Intensity [3]?
Answer: The Mean Fluorescent Intensity was 46000.

Question: And the Mean Fluorescent Intensity [4]?
Answer: Its Mean Fluorescent Intensity is 8000.

Question: And the Mean Fluorescent Intensity [5]?
Answer: The Mean Fluorescent Intensity was 72000.

Question: And the Mean Fluorescent Intensity [6]?
Answer: Its Mean Fluorescent Intensity is 14000.

Question: What about the Mean Fluorescent Intensity [7] of the same binder?
Answer: The Mean Fluorescent Intensity was 62000.

Question: And the Mean Fluorescent Intensity [8]?
Answer: The Mean Fluorescent Intensity was 22000.

B2: chimeric antibody ch08 (antibody, human IgG1, V domains shown)
VH: EVQLVESGGDLVRPGGSLQLSCAASGFTFSRNGMSWVRQTPDRRLEWVATVSSGGSYIYYADSVKGRFTISRDNARNTLYLQMSSLKSEDTAMYYCARQGTTALATRFFDVWGAGTTVTVSS
VL: DIVMTQSHKFISTSVGDRVSITCKASQDVGTAVAWYQQIPGQSPKLLIYSASYRSTGIPDRFTGSGSGTDFSFIISSVQAEDLALYYCQHHYSAPWTFGGGTTLDIK
Question: Which EC50 [9] does the source give for B2 here?
Answer: Its EC50 is 5.64 nM.

B3: hu07 heavy chain v1.5 / light chain v1.0 (antibody, IgG1, V domains shown)
VH: EVQLVESGGGLVQPGGSLRLSCAASGFSLTKYGVHWVRQAPGKGLEWVGVKWAGGSTDYNSALMSRFTISKDNAKNSLYLQMNSLRAEDTAVYYCARDHRDAMDYWGQGTLVTVSS
VL: DIQMTQSPSSLSASVGDRVTITCTASLSVSSTYLHWYQQKPGKAPKLLIYSTSNLASGVPSRFSGSGSGTDFTLTISSLQPEDFATYYCHQYHRSPLTFGGGTKVEIK
Question: For B3, which EC50 [10] is on record?
Answer: The EC50 was 1.17 nM.

Question: What about the IC50 [11] of the same binder?
Answer: Its IC50 is 12.3 nM.

B4: hu07 heavy chain v1.5 / light chain v1.1 (antibody, IgG1, V domains shown)
VH: EVQLVESGGGLVQPGGSLRLSCAASGFSLTKYGVHWVRQAPGKGLEWVGVKWAGGSTDYNSALMSRFTISKDNAKNSLYLQMNSLRAEDTAVYYCARDHRDAMDYWGQGTLVTVSS
VL: DIQMTQSPSSLSASVGDRVTITCTASLSVSSTYLHWYQQKPGSSPKLLIYSTSNLASGVPSRFSGSGSGTSFTLTISSLQPEDFATYYCHQYHRSPLTFGGGTKVEIK
Question: What does the source list for B4?
Answer: EC50 [10]: 1.29 nM; IC50 [11]: 19 nM

B5: humanized antibody hu08 v1.0 HC/v1.1 LC (antibody, IgG1, V domains shown)
VH: EVQLVESGGGLVQPGGSLRLSCAASGFTFSRNGMSWVRQAPGKGLEWVATVSSGGSYIYYADSVKGRFTISRDNAKNSLYLQMNSLRAEDTAVYYCARQGTTALATRFFDVWGQGTLVTVSS
VL: DIQMTQSPSSLSASVGDRVTITCKASQDVGTAVAWYQQIPGKAPKLLIYSASYRSTGVPDRFSGSGSGTDFSFIISSLQPEDFATYYCQHHYSAPWTFGGGTKVEIK
Question: B5 was tested. Which EC50 [9] did it give?
Answer: Its EC50 is 6.52 nM.

B6: humanized antibody hu08 v1.1 HC/v1.0 LC (antibody, IgG1, V domains shown)
VH: EVQLVESGGGLVQPGGSLRLSCAASGFTFSRNGMSWVRQTPDKRLEWVATVSSGGSYIYYADSVKGRFTISRDNAKNSLYLQMSSLRAEDTAVYYCARQGTTALATRFFDVWGQGTLVTVSS
VL: DIQMTQSPSSLSASVGDRVTITCKASQDVGTAVAWYQQKPGKAPKLLIYSASYRSTGVPSRFSGSGSGTDFTLTISSLQPEDFATYYCQHHYSAPWTFGGGTKVEIK
Question: With B6 as the binder, how does the EC50 [9] read?
Answer: The EC50 was 4.15 nM.

B7: humanized antibody hu08 v1.1 HC/v1.1 LC (antibody, IgG1, V domains shown)
VH: EVQLVESGGGLVQPGGSLRLSCAASGFTFSRNGMSWVRQTPDKRLEWVATVSSGGSYIYYADSVKGRFTISRDNAKNSLYLQMSSLRAEDTAVYYCARQGTTALATRFFDVWGQGTLVTVSS
VL: DIQMTQSPSSLSASVGDRVTITCKASQDVGTAVAWYQQIPGKAPKLLIYSASYRSTGVPDRFSGSGSGTDFSFIISSLQPEDFATYYCQHHYSAPWTFGGGTKVEIK
Question: Which EC50 [9] does the source give for B7 here?
Answer: The EC50 was 5.16 nM.

B8: murine anti-IL-13Rα2 antibody mu07 (antibody, mouse IgG1, V domains shown)
VH: QVQLKESGPGLVAPSQSLSINCTVSGFSLTKYGVHWIRQSPGKGLEWLGVKWAGGSTDYNSALMSRLTISKDNNKSQVFLKMNSLQSDDSAMYYCARDHRDAMDYWGQGTSVTVSS
VL: QVVLTQSPAIMSASPGERVTMTCTASLSVSSTYLHWYHQKPGSSPKLWIYSTSNLASGVPARFSGSGSGTSYSLTISSMEAEDAATYYCHQYHRSPLTFGSGTKLELK
Question: What does the source list for B8?
Answer: % internalization, 15 min, A375 [1]: 63.1%; % internalization, 15 min, H460R [1]: 74.4%; % internalization, 15 min, Hs766T [1]: 69.6%; % internalization, 15 min, PC3MM2 [1]: 88.6%; % internalization, 4 hours, A375 [1]: 38.1%; % internalization, 4 hours, H460R [1]: 38.4%; % internalization, 4 hours, Hs766T [1]: 69%; % internalization, 4 hours, PC3MM2 [1]: 50.3%; internalized after a 1 hour incubation with A375 cells at 37° C. [1]: 38%; Mean Fluorescent Intensity [2]: 13000; Mean Fluorescent Intensity [3]: 53000; Mean Fluorescent Intensity [4]: 9000; Mean Fluorescent Intensity [5]: 84000; Mean Fluorescent Intensity [6]: 13000; Mean Fluorescent Intensity [7]: 61000; Mean Fluorescent Intensity [8]: 28000

B9: hu07 heavy chain v1.5 paired with chimeric light chain (antibody, V domains shown)
VH: EVQLVESGGGLVQPGGSLRLSCAASGFSLTKYGVHWVRQAPGKGLEWVGVKWAGGSTDYNSALMSRFTISKDNAKNSLYLQMNSLRAEDTAVYYCARDHRDAMDYWGQGTLVTVSS
VL: QVVLTQSPAIMSASPGERVTMTCTASLSVSSTYLHWYHQKPGSSPKLWIYSTSNLASGVPARFSGSGSGTSYSLTISSMEAEDAATYYCHQYHRSPLTFGSGTKLELK
Question: What does the source list for B9?
Answer: EC50 [10]: 0.87 nM; IC50 [11]: 7.67 nM

B10: chimeric antibody ch07 (antibody, human IgG1, V domains shown)
VH: QVQLKESGPGLVAPSQSLSINCTVSGFSLTKYGVHWIRQSPGKGLEWLGVKWAGGSTDYNSALMSRLTISKDNNKSQVFLKMNSLQSDDSAMYYCARDHRDAMDYWGQGTSVTVSS
VL: QVVLTQSPAIMSASPGERVTMTCTASLSVSSTYLHWYHQKPGSSPKLWIYSTSNLASGVPARFSGSGSGTSYSLTISSMEAEDAATYYCHQYHRSPLTFGSGTKLELK
Question: B10 was tested. Which EC50 [10] did it give?
Answer: The EC50 was 0.85 nM.

Question: And the IC50 [11]?
Answer: The IC50 was 17.3 nM.
